The assay deals with T1, MAGE-A11 MHD (218-429), as part of the crystallised fusion (human, UniProt P43364 218-429).
T1 construct: In the crystal it follows PCF11 677-701 and the linker GGSGRP (whole chain: m25); also called MAGE-A11 MHD (S218 to C-terminus); source: E. coli BL21(DE3), purified, on one chain with the PCF11 degron
T1 sequence (looked up): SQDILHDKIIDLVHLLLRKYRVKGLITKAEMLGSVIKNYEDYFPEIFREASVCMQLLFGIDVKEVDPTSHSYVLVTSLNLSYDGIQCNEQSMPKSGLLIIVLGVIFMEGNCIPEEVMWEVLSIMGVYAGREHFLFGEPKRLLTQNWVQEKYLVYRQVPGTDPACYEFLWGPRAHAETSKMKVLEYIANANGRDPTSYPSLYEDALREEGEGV
Kind of assay: crystal structure; PCF11 677-701 fused by GGSGRP to the N-terminus of MAGE-A11 MHD 218-429; sitting drop, 20 °C, 0.2 M Na acetate, 0.1 M Bis Tris propane pH 7.5, 20% PEG 3350; four protomers in the P 1 cell. The conditions noted are these: both partners purified.

B1: PCF11 degron peptide (human PCF11 amino acid 677-701), as part of the crystallised fusion (peptide, UniProt O94913 677-701, looked up)
chain: ITQDDFLVVVHQIRQLFQYQEGVRE
notes: PCF11, human, amino acids 677-701; In the crystal it is joined by the linker GGSGRP to the N-terminus of m27 (whole chain: m25); also called PCF11 peptide; source: E. coli BL21(DE3), purified, on one chain with MAGE-A11 MHD
Turning to B1, the binding result is “binds”.

Source of the values: publication PMC7529893, “Structural basis for substrate recognition and chemical inhibition of oncogenic MAGE ubiquitin ligases” (Nature Communications, 2020).
